Tests used:
[1] = target: cynomolgus monkey (cyno) TIGIT protein (cynomolgus monkey, UniProt A0A7N9I9V4 89-209); experiment: SPR, monovalent affinity
human TIGIT protein = target: T1, human TIGIT protein (human, UniProt Q495A1 22-141, limits assumed); experiment: SPR, monovalent affinity
T1 construct: Recombinant protein (Genentech) used in ELISA screening and as SPR analyte; also called TIGIT antigen
T1 sequence: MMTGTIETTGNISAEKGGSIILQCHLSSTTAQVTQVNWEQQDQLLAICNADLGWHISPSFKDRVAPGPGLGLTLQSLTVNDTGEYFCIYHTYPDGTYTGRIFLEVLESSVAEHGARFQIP

hTIGIT mutant E60A [2] = target: T2, hTIGIT mutant E60A (human, UniProt Q495A1); experiment: SPR (BIACORE), N=2
T2 sequence (TIGIT, looked up): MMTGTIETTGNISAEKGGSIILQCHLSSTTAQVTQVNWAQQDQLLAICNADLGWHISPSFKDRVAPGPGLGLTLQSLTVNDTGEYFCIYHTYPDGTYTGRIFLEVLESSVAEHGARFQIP

hTIGIT mutant I68A [3] = target: T3, hTIGIT mutant I68A (human, UniProt Q495A1); experiment: SPR (BIACORE), N=2
T3 sequence (TIGIT, looked up): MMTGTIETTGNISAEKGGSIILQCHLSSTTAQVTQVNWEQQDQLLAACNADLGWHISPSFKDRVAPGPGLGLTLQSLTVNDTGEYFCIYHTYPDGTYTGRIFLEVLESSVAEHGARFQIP

hTIGIT mutant L65A [4] = target: T4, hTIGIT mutant L65A (human, UniProt Q495A1); experiment: SPR (BIACORE), N=2
T4 sequence (TIGIT, looked up): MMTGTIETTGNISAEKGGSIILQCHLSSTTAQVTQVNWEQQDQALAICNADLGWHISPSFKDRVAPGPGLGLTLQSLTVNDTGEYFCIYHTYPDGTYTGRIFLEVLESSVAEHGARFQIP

hTIGIT mutant H111A [5] = target: T5, hTIGIT mutant H111A (human, UniProt Q495A1); experiment: SPR (BIACORE), N=2
T5 sequence (TIGIT, looked up): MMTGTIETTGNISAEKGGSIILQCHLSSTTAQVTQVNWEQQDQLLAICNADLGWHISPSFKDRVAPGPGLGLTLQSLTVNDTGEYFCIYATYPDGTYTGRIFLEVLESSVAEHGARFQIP

hTIGIT mutant Q56A [6] = target: T6, hTIGIT mutant Q56A (human, UniProt Q495A1); experiment: SPR (BIACORE), N=2
T6 sequence (TIGIT, looked up): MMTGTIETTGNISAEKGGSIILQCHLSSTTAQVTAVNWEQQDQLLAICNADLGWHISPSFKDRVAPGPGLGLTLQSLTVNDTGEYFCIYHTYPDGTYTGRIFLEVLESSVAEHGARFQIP

hTIGIT mutant H76A [7] = target: T7, hTIGIT mutant H76A (human, UniProt Q495A1); experiment: SPR (BIACORE), N=2
T7 sequence (TIGIT, looked up): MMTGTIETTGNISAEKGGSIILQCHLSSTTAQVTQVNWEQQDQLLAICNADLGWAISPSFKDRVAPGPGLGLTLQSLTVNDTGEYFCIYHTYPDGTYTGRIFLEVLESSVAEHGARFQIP

hTIGIT mutant T117A [8] = target: T8, hTIGIT mutant T117A (human, UniProt Q495A1); experiment: SPR (BIACORE), N=2
T8 sequence (TIGIT, looked up): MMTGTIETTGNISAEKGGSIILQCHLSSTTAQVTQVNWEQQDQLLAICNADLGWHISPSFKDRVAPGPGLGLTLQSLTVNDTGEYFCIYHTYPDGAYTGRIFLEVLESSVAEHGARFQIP

hTIGIT mutant N70A [9] = target: T9, hTIGIT mutant N70A (human, UniProt Q495A1); experiment: SPR (BIACORE), N=2
T9 sequence (TIGIT, looked up): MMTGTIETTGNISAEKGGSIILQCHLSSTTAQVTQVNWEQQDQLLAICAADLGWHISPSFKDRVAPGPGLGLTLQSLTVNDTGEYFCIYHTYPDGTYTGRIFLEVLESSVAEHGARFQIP

hTIGIT mutant E60A [10] = target: T2, hTIGIT mutant E60A; experiment: SPR (BIACORE) KD normalized to WT, N=2
hTIGIT mutant I68A [11] = target: T3, hTIGIT mutant I68A; experiment: SPR (BIACORE) KD normalized to WT, N=2
hTIGIT mutant L65A [12] = target: T4, hTIGIT mutant L65A; experiment: SPR (BIACORE) KD normalized to WT, N=2
hTIGIT mutant H111A [13] = target: T5, hTIGIT mutant H111A; experiment: SPR (BIACORE) KD normalized to WT, N=2
hTIGIT mutant Q56A [14] = target: T6, hTIGIT mutant Q56A; experiment: SPR (BIACORE) KD normalized to WT, N=2
hTIGIT mutant H76A [15] = target: T7, hTIGIT mutant H76A; experiment: SPR (BIACORE) KD normalized to WT, N=2
hTIGIT mutant T117A [16] = target: T8, hTIGIT mutant T117A; experiment: SPR (BIACORE) KD normalized to WT, N=2
hTIGIT mutant N70A [17] = target: T9, hTIGIT mutant N70A; experiment: SPR (BIACORE) KD normalized to WT, N=2

Chain of cynomolgus monkey (cyno) TIGIT protein (A0A7N9I9V4 entry or part of it): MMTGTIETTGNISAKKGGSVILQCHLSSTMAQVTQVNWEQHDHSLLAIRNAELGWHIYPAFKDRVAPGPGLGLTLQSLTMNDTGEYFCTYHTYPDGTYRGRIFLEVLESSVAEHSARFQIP

B1: 4.1D3 (antibody, V domains shown)
VH: QVQLQQSGPGLVKPSQTLSLTCAISGDSVSSNSAAWNWIRQSPSRGLEWLGKTYYRFKWYSDYAVSVKGRITINPDTSKNQFSLQLNSVTPEDTAVFYCTRESTTYDLLAGPFDYWGQGTLVTVSS
VL: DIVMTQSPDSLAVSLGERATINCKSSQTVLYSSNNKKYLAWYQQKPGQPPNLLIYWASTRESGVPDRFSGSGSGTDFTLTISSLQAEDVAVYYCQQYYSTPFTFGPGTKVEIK
notes: OMT rat-derived human antibody; also called 4.1D3.Q1
Kd [1]: 3.4 nM
Kd (human TIGIT protein): 0.61 nM
Kd (hTIGIT mutant E60A [2]): 6.1 nM
Kd (hTIGIT mutant I68A [3]): 10.5 nM
Kd (hTIGIT mutant L65A [4]): 8.8 nM
Kd (hTIGIT mutant H111A [5]): 1.9 nM
Kd (hTIGIT mutant Q56A [6]): 2.7 nM
Kd (hTIGIT mutant H76A [7]): 0.7 nM
Kd (hTIGIT mutant T117A [8]): 0.7 nM
Kd (hTIGIT mutant N70A [9]): 1.7 nM
Binding affinity drop vs. WT (hTIGIT mutant E60A [10]): 12.2 fold
Binding affinity drop vs. WT (hTIGIT mutant I68A [11]): 21 fold
Binding affinity drop vs. WT (hTIGIT mutant L65A [12]): 17.6 fold
Binding affinity drop vs. WT (hTIGIT mutant H111A [13]): 3.8 fold
Binding affinity drop vs. WT (hTIGIT mutant Q56A [14]): 5.4 fold
Binding affinity drop vs. WT (hTIGIT mutant H76A [15]): 1.4 fold
Binding affinity drop vs. WT (hTIGIT mutant T117A [16]): 1.4 fold
Binding affinity drop vs. WT (hTIGIT mutant N70A [17]): 3.4 fold

B2: 4.1D3.Q1E (antibody, V domains shown)
VH: EVQLQQSGPGLVKPSQTLSLTCAISGDSVSSNSAAWNWIRQSPSRGLEWLGKTYYRFKWYSDYAVSVKGRITINPDTSKNQFSLQLNSVTPEDTAVFYCTRESTTYDLLAGPFDYWGQGTLVTVSS
VL: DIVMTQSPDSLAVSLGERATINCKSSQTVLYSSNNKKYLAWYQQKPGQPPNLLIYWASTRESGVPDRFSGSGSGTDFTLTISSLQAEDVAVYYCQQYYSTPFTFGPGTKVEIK
Kd [1]: 3.2 nM
Kd (human TIGIT protein): 0.57 nM

B3: 7.4A3.C96S.Q1E (antibody, V domains shown)
VH: EVQLVQSGSDLKKPGASVRVSCKASGYTFTSYPMNWVRQAPGHGLEWMGWINTNTGNPTYVQGFTGRFVFSLDTSVNTAYLQISSLKAEDTAVYFCARTGGHTYDSYAFDVWGQGTMVTVSS
VL: DIQLTQSPTFLSASVGDRVTITCRASQVISSSLAWYQQNPGKAPKLLIYAASTLQSGVPSRFSGSGSGTEFTLTISSLQPEDFVTYYCQHLHGYPSNFGQGTKVEIK
notes: also called 7.4A3.Q1E.C96S
Kd [1]: 2.02 nM
Kd (human TIGIT protein): 2.97 nM
Kd (hTIGIT mutant E60A [2]): 4.8 nM
Kd (hTIGIT mutant I68A [3]): 4.9 nM
Kd (hTIGIT mutant L65A [4]): 3.9 nM
Kd (hTIGIT mutant H111A [5]): 151 nM
Kd (hTIGIT mutant Q56A [6]): 23.7 nM
Kd (hTIGIT mutant H76A [7]): 4.2 nM
Kd (hTIGIT mutant T117A [8]): 3.3 nM
Kd (hTIGIT mutant N70A [9]): 10.7 nM
Binding affinity drop vs. WT (hTIGIT mutant E60A [10]): 2.7 fold
Binding affinity drop vs. WT (hTIGIT mutant I68A [11]): 2.7 fold
Binding affinity drop vs. WT (hTIGIT mutant L65A [12]): 2.2 fold
Binding affinity drop vs. WT (hTIGIT mutant H111A [13]): 84 fold
Binding affinity drop vs. WT (hTIGIT mutant Q56A [14]): 13.2 fold
Binding affinity drop vs. WT (hTIGIT mutant H76A [15]): 2.3 fold
Binding affinity drop vs. WT (hTIGIT mutant T117A [16]): 1.8 fold
Binding affinity drop vs. WT (hTIGIT mutant N70A [17]): 5.9 fold

B4: 10A7 (antibody, V domains shown)
VH: EVQLVESGGGLTQPGKSLKLSCEASGFTFSSFTMHWVRQSPGKGLEWVAFIRSGSGIVFYADAVRGRFTISRDNAKNLLFLQMNDLKSEDTAMYYCARRPLGHNTFDSWGQGTLVTVSS
VL: DIVMTQSPSSLAVSPGEKVTMTCKSSQSLYYSGVKENLLAWYQQKPGQSPKLLIYYASIRFTGVPDRFTGSGSGTDYTLTITSVQAEDMGQYFCQQGINNPLTFGDGTKLEIKR
Kd (hTIGIT mutant E60A [2]): 40.3 nM
Kd (hTIGIT mutant I68A [3]): 17.1 nM
Kd (hTIGIT mutant L65A [4]): 10.6 nM
Kd (hTIGIT mutant H111A [5]): 33.3 nM
Kd (hTIGIT mutant Q56A [6]): 29.5 nM
Kd (hTIGIT mutant H76A [7]): > 500 nM
Kd (hTIGIT mutant T117A [8]): 36.4 nM
Kd (hTIGIT mutant N70A [9]): 24.3 nM
Binding affinity drop vs. WT (hTIGIT mutant E60A [10]): 0.9 fold
Binding affinity drop vs. WT (hTIGIT mutant I68A [11]): 0.4 fold
Binding affinity drop vs. WT (hTIGIT mutant L65A [12]): 0.2 fold
Binding affinity drop vs. WT (hTIGIT mutant H111A [13]): 0.7 fold
Binding affinity drop vs. WT (hTIGIT mutant Q56A [14]): 0.7 fold
Binding affinity drop vs. WT (hTIGIT mutant H76A [15]): > 11 fold
Binding affinity drop vs. WT (hTIGIT mutant T117A [16]): 0.8 fold
Binding affinity drop vs. WT (hTIGIT mutant N70A [17]): 0.5 fold
